Data: US20160237162A1 (AstraZeneca / MedImmune, published 2016)
Residue numbers refer to the chain shown, from its start. Numbers in names are those of the source.

B1: 1A4 antibody, human IgG1 (antibody, V domains shown)
VH: EVQLLESGGGLVQPGGSLRLSCAASGFTFSYYYMQWVRQAPGKGLEWVSYIGSSGGVTNYADSVKGRFTISRDNSKNTLYLQMNSLRAEDTAVYYCARVGLGDAFDIWGQGTMVTVSS
VL: QSVLTQPPSASGTPGQRVTISCSGSSSNIGLNYVSWYQQLPGTAPKLLISRNNQRPSGVPDRFSGSKSGTSASLAISGLRSEDEADYYCAAWDDSPPGEAFGGGTKLTVL
notes: IgG1, lambda
B2: Clone 16 antibody (CL16), human IgG1 (antibody, V domains shown)
VH: B1 VH
VL: B1 VL with S2Y, V3E, I20M, P96L, P97S, A100V
notes: also called parental IgG; Clone 16-PA
B3: 2C2 monoclonal antibody, human IgG1 (antibody, V domains shown)
VH: B1 VH
VL: B1 VL with S26L
B4: 2F10 antibody, human IgG1 (antibody, V domains shown)
VH: B1 VH
VL: B1 VL with P97S
B5: 3E1 antibody, human IgG1 (antibody, V domains shown)
VH: B1 VH
VL: B1 VL with S23R
notes: IgG1, lambda
B6: P2B11 antibody, human IgG1 (antibody, V domains shown)
VH: B1 VH
VL: not shown
B7: clone 2D1 Fab (Fab, V domains shown)
VH: B1 VH
VL: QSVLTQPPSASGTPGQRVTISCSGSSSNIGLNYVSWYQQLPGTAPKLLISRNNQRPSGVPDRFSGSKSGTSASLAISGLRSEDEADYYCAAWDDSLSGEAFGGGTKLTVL
notes: Fab, single VL mutant (V97A) of GL-P6
B8: clone 4C4 Fab (Fab, V domains shown)
VH: B1 VH
VL: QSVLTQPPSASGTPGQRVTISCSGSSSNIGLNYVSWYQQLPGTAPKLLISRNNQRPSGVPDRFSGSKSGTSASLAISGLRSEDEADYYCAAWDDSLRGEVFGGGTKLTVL
notes: Fab, single VL mutant (S96aR) of GL-P6
B9: clone 4H6 Fab (Fab, V domains shown)
VH: B1 VH
VL: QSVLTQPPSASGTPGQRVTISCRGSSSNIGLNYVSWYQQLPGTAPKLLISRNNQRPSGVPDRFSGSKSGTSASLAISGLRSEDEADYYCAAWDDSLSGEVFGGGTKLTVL
notes: Fab, single VL mutant (S24R) of GL-P6
B10: clone 6E3 Fab (Fab, V domains shown)
VH: B1 VH
VL: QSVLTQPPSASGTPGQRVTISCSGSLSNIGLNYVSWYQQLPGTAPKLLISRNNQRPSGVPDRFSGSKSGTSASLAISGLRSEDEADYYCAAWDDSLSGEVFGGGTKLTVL
notes: Fab, single VL mutant (S27L) of GL-P6
B11: clone 8A3 Fab (Fab, V domains shown)
VH: B1 VH
VL: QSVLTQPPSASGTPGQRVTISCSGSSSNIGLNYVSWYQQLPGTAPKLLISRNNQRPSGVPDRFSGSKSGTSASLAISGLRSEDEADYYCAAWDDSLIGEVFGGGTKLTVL
notes: Fab, single VL mutant (S96aI) of GL-P6
B12: 2C2-YTE monoclonal antibody (antibody, human IgG1, V domains shown)
VH: B1 VH
VL: B1 VL with S26L

Tests used:
[1] = target: T1, human HER3 on human cancer cells (human, UniProt P21860 20-1342); assay: cell-based or functional assay
[2] = target: T2, Recombinant mouse HER3(ECD)/Fc chimera (mouse, UniProt Q61526 20-641); assay: ELISA with purified IgG on murine HER3
T2 construct: Generated in house; also called murine HER3 (as a HER3-Fc fusion); murine HER3; not shown: Fc part and any linker or tag of the in-house chimera

[3] = target: T3, Recombinant human HER3(ECD)/Fc chimera (human, UniProt P21860 20-643, biotinylated in the capture ELISA of section 1.9); assay: HRG-HER3 ELISA: plate coated with HRG, antibody dilutions premixed with 5 ug/ml recombinant HER3, bound HER3 detected by anti-His HRP; blocked ligand HRG
T3 construct: extracellular domain; Bought (R&D Systems); The ELISA sections say only 'recombinant HER3 protein' / 'biotinylated HER3 protein' / 'recombinant HER3'; also called recombinant HER3 protein; biotinylated HER3 protein; not shown: Fc, linker peptide and C-terminal 6x Histidine-tag

[4] = target: T1, human HER3 on human cancer cells; assay: cell-based or functional assay; remark: listed apart in the source
[5] = target: T1, human HER3 on human cancer cells; assay: cell-based or functional assay; remark: listed apart in the source
[6] = target: T1, human HER3 on human cancer cells; assay: cell-based or functional assay; remark: listed apart in the source
[7] = target: T1, human HER3 on human cancer cells; assay: cell-based or functional assay; remark: listed apart in the source
[8] = target: T1, human HER3 on human cancer cells; assay: cell-based or functional assay; remark: listed apart in the source
[9] = target: T1, human HER3 on human cancer cells; assay: cell-based or functional assay; remark: listed apart in the source
[10] = target: T1, human HER3 on human cancer cells; assay: cell-based or functional assay; remark: listed apart in the source
[11] = target: T1, human HER3 on human cancer cells; assay: cell-based or functional assay; remark: listed apart in the source
[12] = target: T1, human HER3 on human cancer cells; assay: cell-based or functional assay; remark: listed apart in the source
[13] = target: T1, human HER3 on human cancer cells; assay: cell-based or functional assay; remark: listed apart in the source
[14] = target: T3, Recombinant human HER3(ECD)/Fc chimera; assay: Fab capture ELISA with biotinylated HER3
Protocol: (§1) Briefly, this capture ELISA involved coating individual wells of a 96-well Maxisorp Immunoplate with approximately 50 ng of a sheep anti-human Fd antibody (Biodesign International, ME) in a carbonate buffer at pH 8.5 overnight at 4° C. The next day, the plate was blocked with 3% BSA in PBS buffer for 1 h at room temperature. Fab supernatant was then added to the plate and incubated at room temperature for 1 hr. After washing, 0.1 μg of biotinylated HER3 protein was added to the well and the mixture was incubated for 1.5 h at room temperature. This was followed by incubation with neutravidin-horseradish peroxydase (HRP) conjugate (Pierce, Ill.) for approximately 40 min at room temperature. HRP activity was detected with tetra-methyl-benzidine (TMB) substrate and the reaction quenched with 0.2 M H₂SO₄. Plates were read at 450 nm.
(§2) The Fab concentration was determined by comparing the ELISA signals with the signals generated by the reference Fab.

[15] = target: T3, Recombinant human HER3(ECD)/Fc chimera; assay: Fab capture ELISA with biotinylated HER3, against GL-P6
Protocol: as §1, §2

Binder	BT474 6-day growth % Max inhibition [1]	BT474 clonogenic assay % Max inhibition [1]	BT474 pAKT assay % Max inhibition [1]	T47D HRG inducible pHer3 % Max inhibition [1]	also measured
B1	54.5%	81.3%	62%	84%	binding result [2]: binds
B2	46%	79.8%	64%	75%	IC50 (read off the curve) [3]: ~0.6 µg/mL
B3	–	87.2%	61%	85%	IC50; suppression of pAKT (Meso-Scale Discovery assay), MKN45 cells [4]: 2.9 ng/ml; HRG-induced pHER3 ELISA in MCF-7 cells; potency by IC50 against MM and AMG [5]: ~5 fold; IC50; suppression of pAKT (Meso-Scale Discovery assay), Kato III cells [6]: 0.9 ng/ml; IC50; suppression of pHER3 (pHER3 ELISA), EGFR-TKI (gefitinib)-resistant HCC827 cells [7]: 3.5 ng/ml; IC50; suppression of pAKT (Meso-Scale Discovery assay), BT-474 cells [8]: 0.003 ug/ml; IC50; suppression of pHER3 (pHER3 ELISA), HCC827 cells [9]: 2 ng/ml; IC50; suppression of HRG-induced pHER3 (pHER3 ELISA), MCF-7 cells [10]: 8.4 ng/ml; IC50; growth suppression (CellTiter-Glo, 6 days), HMCB melanoma cells [11]: 0.027 µg/mL; IC50; suppression of pHER3 (pHER3 ELISA), Kato III cells [12]: 0.8 ng/ml; IC50; suppression of pHER3 (pHER3 ELISA), BT-474 cells [13]: 0.004 ug/ml
B4	49%	80.4%	62%	86%	–
B5	48.1%	79.2%	66%	86%	binding result [2]: binds
B6	47.5%	87.1%	62%	85%	–
B7	–	–	–	–	binding result [14]: binds
B8	–	–	–	–	fold binding improvement [15]: 8.6 fold
B9	–	–	–	–	binding result [14]: binds
B10	–	–	–	–	binding result [14]: binds
B11	–	–	–	–	fold binding improvement [15]: 3.5 fold
B12	–	–	–	–	IC50 (read off the curve); suppression of pAKT (Meso-Scale Discovery assay), BT-474 cells [8]: ~0.003 ug/ml; IC50 (read off the curve); suppression of pHER3 (pHER3 ELISA), BT-474 cells [13]: ~0.003 ug/ml
